Laboratory results: the DeepSol protein solubility set

Assay: soluble on expression in E. coli; label from the status in PepcDB or PDB records
For “MAESLLIKDIAIVTENEVIKNGYVGINDGKISTVSTERPKEPYSKEIQAPADSVLLPGMIDIHIHGGYGADTMDASFSTLDIMSSRLPEEGTTSFLATTITQEHGNISQALVNAREWKAAEESSLLGAELLGIHLEGPFVSPKRAGAQPKEWIRPSDVELFKKWQQEAGGLIKIVTLAPEEDQHFELIRHLKDESIIASMGHTDADSALLSDAAKAGASHMTHLYNAMSPFHHREPGVIGTALAHDGFVTELIADGIHSHPLAAKLAFLAKGSSKLILITDSMRAKGLKDGVYEFGGQSVTVRGRTALLSDGTLAGSILKMNEGARHMREFTNCSWTDIANITSENAAKQLGIFDRKGSVTVGKDADLVIVSSDCEVILTICRGNIAFISKEADQI”, the “soluble on expression in E. coli” value was “soluble”.
With “MNPDNLAKLIDELSAMFHPTERDRPHGRWVEAPKSAPPSKRRRSKTAYQLKITLNGIRPPIWRRVLVPGHATFHELHLIIQEAMGWEQAHLYEFDFGSVLIGIPDGWDSFQLEKELMDARRIPLQQWLTEEKQKFLYIYDFGDYWRHTVTVEKIETLPKPLERAACLKGKRACPPEDCGGVYGYLELLEAAAQKDSLADPELRELVDWMYDMKGEDFDPDAFDVEEANERLAYIRL” the “soluble on expression in E. coli” value was “not soluble”.
In the case of “MAVPATIPLTITNNSGRAEQIHIYNLGTELSSGRQGWADASGAFHPWPAGGNPPTPAPDASIPGPAPGRSTTIQIPKFSGRIYFSYGRKMEFRLTTGGLVQPAVQNPTDPNRDILFNWSEYTLNDSGLWINSTQVDMFSAPYTVGVRRGDGTTLSTGKLRPGGYNGVFNALRGQSGGWANLIQTRSDGTVLRALSPLYGVETGALPASVMDDYINRVWNKYTGTDLIVTPFADRPDVRYTGRVSGGVLRFTDGSGAVVTTFQKPDASSVFGCHRLLDAPNDQVRGPISRTLCAGFNRTTLLANPHQPDRSAAGFYQEPVTNHYARIIHAHMADGKAYGFAFDDVGHHESLVHDGDPRGASLTLDPFD”, the “soluble on expression in E. coli” value is reported as “soluble”.
In the case of “MTEPLILQPAKPADACVIWLHGLGADRYDFMPVAEALQESLLTTRFVLPQAPTRPVTINGGYEMPSWYDIKAMSPARSISLEELEVSAKMVTDLIEAQKRTGIDASRIFLAGFSQGGAVVFHTAFINWQGPLGGVIALSTYAPTFGDELELSASQQRIPALCLHGQYDDVVQNAMGRSAFEHLKSRGVTVTWQEYPMGHEVLPQEIHDIGAWLAARLG”, the “soluble on expression in E. coli” value is reported as “soluble”.
With “MGNDKRVRKPEWLKISIGANERYTETKRIVESHCLHTICSSGRCPNMGECWGKGTATFMIAGDICTRSCKFCNTQTGRPLPLDPDEPTHVAESIALMKLSHAVITSVDRDDLPDLGAAHWAQTIREIKRLNPETTTEVLIPDFQGRKELVDQVIKACPEIISHNMETVKRISPQVRSAANYHTSLEVIRQIAESGITAKSGIMVGLGETPAEVEELMDDLISVGCKILTIGQYLQPTHKHFPVAAYITPEQFAVYKETGLKKGFEQVESAPLVRSSYHAEKHIRFNNK” the “soluble on expression in E. coli” value was “not soluble”.
For “MIHKRTNEGDLVIESFADKRCKDLLEGNPPKGFPTTLVRIVQRKLFMLDKAVDLKDLRSPPGNRLEALKGERKGQYSIRINDQFRICFEWRSNGAYEVEIVDYH”, the “soluble on expression in E. coli” value was “not soluble”.
In the case of “MGSDKIHHHHHHMQIVACYSNKGGVGKTATAVNLAYAFATSGRRTLLCDLDPQGASGFYFRVKPSKKLTEARFFEDVEHFTKSIRGSDYDNLDILPANMSFRDFDVFLSKMKDARSRLKKALKAVKGDYDIVLLDCPPNISILSENIFRAADAVVTPVIPTTLSQRTFEQLLEFFREHDLPMEKIHAFFSMIQGTKTLHGEMIVELTHNYPKRIMAAKIPFASEIERMGVVRAPVLATAPDSPAGKAYQALFDELLERIVP”, the “soluble on expression in E. coli” value is reported as “not soluble”.
With “MKIGLFYGSSTCYTEMTAEKIRAILGEELVDIHNVKESPLTLMSDYDLLLLGISTWDFGEIQEDWSAVWDHIGGVSLKNKYVALFGLGDQEGYGEWYLDAMGLLHDQIKKSGANLLGYWPNQGYHFEASKALTEDGSHFVGLALDEDSQYDLSDERIATWVEQVLTEYHDAI” the “soluble on expression in E. coli” value was “not soluble”.
In the case of “QNTLAENQFNQRRTIETTLMGSIISAFRARGDAGAREILTEWKDSPVSSGVYVIQGDEKKDILNRYIDSYTIERARLFAAGHPHSNLVHIEYDRFGEEYLFFTKDWDKLQARRLPSPLLIPGLPLAPIWHE”, the “soluble on expression in E. coli” value is reported as “not soluble”.
In the case of “QPKTFTVRIVTMDAEMEFNCEMKWKGKDLFDLVCRTLGLRETWFFGLQYTIKDTVAWLKMDKKVLDHDVSKEEPVTFHFLAKFYPENAEEELVQEITQHLFFLQVKKQILDEKVYCPPEASVLLASYAVQAKYGDYDPSVHKRGFLAQEELLPKRVINLYQMTPEMWEERITAWYAEHRGRARDEAEMEYLKIAQDLEMYGVNYFTIRNKKGTELLLGVDALGLHIYDPENRLTPKISFPWNEIRNISYSDKEFTIKPLDKKIDVFKFNSSKLRVNKLILQLCIGNHDLFMRRRKADSLEVQQMKAQAREEKARKQMERQRLA”, the “soluble on expression in E. coli” value is reported as “soluble”.
For “GMTGHIDPTKEVFAQFRANDREGPIHMLNLVRLRPRAAYPDGRETTGAEAYAAYGRDSGPVSERLGGKVVWQGQFELMLIGPQDEHWDHVFIAEYPSVAAFVEMIRDPVYREAVKHRQAAVEDSRLIRLKPLKPGKGFGEIPT”, the “soluble on expression in E. coli” value was “soluble”.
In the case of “MEKRGVIDTWIDKHRSIYTAATRHAFVVSIRDGSVDLSSFRTWLGQDYLFVRRFVPFVASVLIRACKDSGESSDMEVVLGGIASLNDEIEWFKREGSKWDVDFSTVVPQRANQEYGRFLEDLMSSEVKYPVIMTAFWAIEAVYQESFAHCLEDGNKTPVELTGACHRWGNDGFKQYCSSVKNIAERCLENASGEVLGEAEDVLVRVLELEVAFWEMSRGGQ”, the “soluble on expression in E. coli” value is reported as “soluble”.
For “MRVYYYMNIEELKRVIKDQREYLESLEKQKIIERELPFNVEQYLSKPNILAILGVRRSGKSTLGYLLVREKNFAYIDFSDDRLVNFTDFDTLTKAFYELYGDFTHVLIDEPQYVNGWELFVNRLRKEKSVIITGSNSSLLSGELASALTGRHVDLILFPFSFKEYLTFRGVKVDLYSTKSISLIKNELENYLKEGGFPETLSLGKRIIPSIYNDIITKDVIGRYKIRDVVKFKEFVNSMVKYYSTEISVRKLANLLKISTRTIEEWLNAIQESYLLFFVRRYSRSPKQFNGQRKVYVIDAGIVNYLTSFSYGGLMENVVAIQLLRKNQLEGIYYLRGEDYEVDFVDEKNGELIQVSYVSSQDEINRNEIRSLVKGSQITEFNKLTIVSWDLEDEIIVEGKKIRIVPLWKYLI”, the “soluble on expression in E. coli” value was “soluble”.
With “MFKKLFGLGSKTNEETIVAPLTGAVKNIEEVPDPVFAGRMMGDGVAIDPTEGVVVSPVDGEIVQLFHTKHAIGIKAKNGTEILIHVGLETVKMEGEGFEAHVSEGQAVKAGDKLISFDLELIREKAKSTITPIVITNTDAAESIKTTVGVTATKGSTEVMKVTMK” the “soluble on expression in E. coli” value was “not soluble”.
In the case of “MGSDKIHHHHHHMSLAIVYSRASMGVQAPLVTIEVHLSNGKPGFTLVGLPEKTVKEAQDRVRSALMNAQFKYPAKRITVNLAPADLPKEGGRFDLPIAIGILAASDQLDASHLKQFEFVAELALTGQLRGVHGVIPAILAAQKSKRELIIAKQNANEASLVSDQNTYFAQTLLDVVQFLNGQEKLPLATEIVKESAVNFSGKNTLDLTDIIGQQHAKRALTIAAAGQHNLLFLGPPGTGKTMLASRLTGLLPEMTDLEAIETASVTSLVQNELNFHNWKQRPFRAPHHSASMPALVGGGTIPKPGEISLATNGVLFLDELPEFERKVLDALRQPLESGEIIISRANAKIQFPARFQLVAAMNPSPTGHYTGTHNRTSPQQIMRYLNRLSGPFLDRFDLSIEVPLLPQGSLQNTGDRGETSAQVREKVLKVREIQMERAGKINAYLNSKEIERDCKLNDKDAFFLEKALNKLGLSVRAYHRILKVSRTIADLQGEQQIFQPHLAEALGYRAMVRLLQKLSNM”, the “soluble on expression in E. coli” value is reported as “not soluble”.
For “MVPELMFDEPRPGRPPRHLADLDAAGRASAVAELGLPAFRAKQLAHQYYGRLIADPRQMTDLPAAVRDRIAGAMFPNLLTASADITCDAGQTRKTLWRAVDGTMFESVLMRYPRRNTVCISSQAGCGMACPFCATGQGGLTRNLSTAEILEQVRAGAAALRDDFGDRLSNVVFMGMGGAAGQLRQGVGRSSAHYRAAAVRFRDFGPRGDGVDGGSGPCYPQPCRRAARRDPGAVAARPRRRVARYTSSGQQPVEDQRSARCGPVLRQCDRATGVY”, the “soluble on expression in E. coli” value was “soluble”.
For “MGSDKIHHHHHHMNILVSNGEEHVNQTIASFFHQRGDRPILLFTEKEKHLEYVAGHPEQEAVLCTTYEEETLAAMVKEAFEEEAIDVLVHGNEMVNEAELLERDPSSLNEVVQKALYHLFLLNKVVVRDMVKRKQGKIIFPLFYDPLYYAGYASSPILNQAKLSLMKCMSRELGAFKINVNSITFGYYNDQFTREEKKATKSQVEIFCLKPKLPEIEEYVHSIGLLVDPSASLIGGENLHVGAGIETGI”, the “soluble on expression in E. coli” value was “not soluble”.
With “PYNKNGFKVGMKLEGVDPEHQSVYCVLTVAEVCGYRIKLHFDGYSDCYDFWVNADALDIHPVGWCEKTGHKLHPPKGYKEEEFNWQTYLKTCKAQAAPKSLFENQNITVIPSGF” the “soluble on expression in E. coli” value was “soluble”.
In the case of “MAHHHHHHMGTLEAQTQGPGSMDFRIGQGYDVHQLVPGRPLIIGGVTIPYERGLLGHSDADVLLHAITDALFGAAALGDIGRHFSDTDPRFKGADSRALLRECASRVAQAGFAIRNVDSTIIAQAPKLAPHIDAMRANIAADLDLPLDRVNVKAKTNEKLGYLGRGEGIEAQAAALVVREAAA”, the “soluble on expression in E. coli” value is reported as “soluble”.
In the case of “MSLRASGSGANPDKTWESRSLPIGNGSLGANILGSVAAERITLNEKTLWKGGPNTSKGAEYYWDVNKQSAGVLKEIRQAFLDEDKEKAAQLTRNNFNGLAAYEEKDETPFRFGSFTTMGELYVETGLNELRMSNYRRILSLDSAMVVVQFDKDGVQYQRKYFISYPDSVMVMKFTANQSGKQNLILSYCPNSEAKSNLRADGKDGLVYTGVLDNNGMKFAFRIKAIHKGGTLEAENDRLIVKGADEVVFLLTADTDYKMNFNPDFKDPKTYVGNDPEQTTRIMMDQAVQKGYDELYRNHEADHTALFNRVRLQLNPDISSPNLPTYQRLANYKKGTPDYQLEQLYYQFGRYLLIASSRPGNMPANLQGMWHNNLDGPWRVDYHNNINIQMNYWPACSANLSECTWPLIDFIRSLVKPGEQTAQAYFNARGWTASISANIFGFTAPLSSNMMSWNLNPTAGPWLATHIWEYYDYTRDKKFLKEIGYDLIKSSAQFAVDHLWHKPDGTYTAAPSTSPEHGPIDEGVTFAHAVVREILLDAIQASKELGIDSKERKQWEKILDKLVPYRIGRYGQLMEWSTDIDDPEDEHRHVNHLFGLHPGHTISPITTPKLAEAAKVVLEHRGDGATGWSMGWKLNQWARLQDGNHAYKLYGNLLKNGTLDNLWDTHAPFQIDGNFGGTAGITEMLLQSHMGFIQLLPALPDAWKNGSITGICAKGNFEISISWKEGQLDKATILSGSGTPCNVRYGDKTLSFSTVKGKKYEITLVGNLLKLEGHHHHHH”, the “soluble on expression in E. coli” value is reported as “soluble”.
In the case of “MNLRNGWNIEFQKNIHMYCHRLIATKGDKHYEVPCEDTPAGFVGIWLYGLELDEMTLSDLQAGLVEWAESSGCTYRIYNTRGVYLTNEPHVQADA”, the “soluble on expression in E. coli” value is reported as “not soluble”.
In the case of “MELERIVSAALLAFVQTHLPEADLSGLDEVIFSYVLGVLEDLGPSGPSEENFDMEAFTEMMEAYVPGFAHIPRGTIGDMMQKLSGQLSDARNKENLQPQSSGVQGQVPISPEPLQRPEMLKEETRSSAAAAADTQDEATGAEEELLPGVDVLLEVFPTCSVEQAQWVLAKARGDLEEAVQMLVEGKEEGPAAWEGPNQDLPRRLRGPQKDELKSFILQKYMMVDSA”, the “soluble on expression in E. coli” value is reported as “soluble”.
